# Experimental data taken from the supplement of paper PMC9233669.
# Fewer inactive variants are shown than the library holds.
# Key:
# biotinyl-Phe-oxazolone = assay: self-aminoacylation, catalytic enhancement (BFO) (fold over background); higher = more active; k-Seq, kA / k0A0; sequences stand for … in GGGAAUGGAUCCACAUCUACGAAUUC…UUCACUGCAGACUUGACGAAGCUG
# How it was run: (§1)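 Mutagenized RNA pools with a 21-nt variable region (0.43 μM) reacted with each biotinyl-aminoacyl-oxazolone at 2–1250 μM. Reactions ran in 50 μL HEPES/NaCl/KCl/MgCl2/CaCl2 buffer with 5% acetonitrile, pH 6.9–7.0, for 90 minutes at room temperature. Streptavidin-captured RNA was quantified by triplicate qPCR and Illumina sequencing, and per-sequence fraction reacted was fit to a pseudo-first-order model with 1000 bootstraps. Catalytic enhancement is median kA divided by the uncatalyzed rate, the low-activity peak of a bimodal Gaussian fit.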
# biotinyl-Ile-oxazolone = assay: self-aminoacylation, catalytic enhancement (BIO) (fold over background); higher = more active; k-Seq, kA / k0A0; sequences stand for … in GGGAAUGGAUCCACAUCUACGAAUUC…UUCACUGCAGACUUGACGAAGCUG
# How it was run: as §1
# biotinyl-Met-oxazolone = assay: self-aminoacylation, catalytic enhancement (BMO) (fold over background); higher = more active; k-Seq, kA / k0A0; sequences stand for … in GGGAAUGGAUCCACAUCUACGAAUUC…UUCACUGCAGACUUGACGAAGCUG
# How it was run: as §1
# biotinyl-Val-oxazolone = assay: self-aminoacylation, catalytic enhancement (BVO) (fold over background); higher = more active; k-Seq, kA / k0A0; sequences stand for … in GGGAAUGGAUCCACAUCUACGAAUUC…UUCACUGCAGACUUGACGAAGCUG
# How it was run: as §1
# biotinyl-Leu-oxazolone = assay: self-aminoacylation, catalytic enhancement (BLO) (fold over background); higher = more active; k-Seq, kA / k0A0; sequences stand for … in GGGAAUGGAUCCACAUCUACGAAUUC…UUCACUGCAGACUUGACGAAGCUG
# How it was run: as §1
# biotinyl-Trp-oxazolone = assay: self-aminoacylation, catalytic enhancement (BWO) (fold over background); higher = more active; k-Seq, kA / k0A0; sequences stand for … in GGGAAUGGAUCCACAUCUACGAAUUC…UUCACUGCAGACUUGACGAAGCUG
# How it was run: as §1
Sequence,self-aminoacylation (biotinyl-Phe-oxazolone),self-aminoacylation (biotinyl-Ile-oxazolone),self-aminoacylation (biotinyl-Met-oxazolone),self-aminoacylation (biotinyl-Val-oxazolone),self-aminoacylation (biotinyl-Leu-oxazolone),self-aminoacylation (biotinyl-Trp-oxazolone)
AUUCACCUAGGUCAUCUUGUG [Fam2.2 aminoacylation ribozyme variant],1.37,0.835,1.13,1.04,1.18,0.594
AUUCACCUAGGUCAUGAGGUG [Fam2.2 aminoacylation ribozyme variant],3.32,1.94,2.41,1.81,3.15,1.75
AUUCACCUAGGUCAUGGCGUG [Fam2.2 aminoacylation ribozyme variant],59.8,5.83,9.82,5.9,13.2,8.17
AUUCACCUAGGUCAUGGGGCG [Fam2.2 aminoacylation ribozyme variant],1.37,2.18,2.3,2.27,3.14,2.15
AUUCACCUAGGUCAUGGGGUC [Fam2.2 aminoacylation ribozyme variant],1.36,1.32,1.39,1.4,1.2,1
AUUCACCUAGGUCAUGGGGUG [Fam2.2 aminoacylation ribozyme variant],39.9,3.7,5.76,3.56,7.33,5.27
AUUCACCUAGGUCAUGGGGUU [Fam2.2 aminoacylation ribozyme variant],0.983,1.5,1.68,1.58,1.52,1.51
AUUCACCUAGGUCAUUGAGUG [Fam2.2 aminoacylation ribozyme variant],12.3,2.6,3.53,2.3,4.17,3.89
AUUCACCUAGGUCCUAGGGUG [Fam2.2 aminoacylation ribozyme variant],4.72,2.06,2.55,1.75,4.26,3.15
AUUCACCUAGGUCCUCGAGUG [Fam2.2 aminoacylation ribozyme variant],3.5,1.26,1.36,1.38,2.12,1.18
AUUCACCUAGGUCCUCGGGCG [Fam2.2 aminoacylation ribozyme variant],35.3,3.37,4.65,2.7,4.27,3.17
AUUCACCUAGGUCGUCGAGUG [Fam2.2 aminoacylation ribozyme variant],0.746,0.661,0.743,0.878,0.851,0.529
AUUCACCUAGGUCGUCGCGUG [Fam2.2 aminoacylation ribozyme variant],39,3.52,5.72,3.84,7.92,5.27
AUUCACCUAGGUCUUAGGGUG [Fam2.2 aminoacylation ribozyme variant],32.2,3.08,5.1,2.85,7.06,4.24
AUUCACCUAGGUCUUCGGGUC [Fam2.2 aminoacylation ribozyme variant],3.66,1.65,1.33,1.68,2.37,1.79
AUUCACCUAGGUCUUCGGGUU [Fam2.2 aminoacylation ribozyme variant],13.8,2.82,3.09,2.98,3.66,2.94
AUUCACCUAGGUCUUUGGGUG [Fam2.2 aminoacylation ribozyme variant],56.1,4.28,6.91,4.09,9.98,6.83
AUUCACCUAGGUGAUCGGGUA [Fam2.2 aminoacylation ribozyme variant],9.83,2.67,3.18,2.48,3.14,3.59
AUUCACCUAGGUGAUCGGGUG [Fam2.2 aminoacylation ribozyme variant],16.6,2.52,2.81,2.62,3.27,3.34
AUUCACCUAGGUUAACGGGUG [Fam2.2 aminoacylation ribozyme variant],24.8,2,2.55,2.1,3.22,2.83
AUUCACCUAGGUUAUCGGAUG [Fam2.2 aminoacylation ribozyme variant],0.355,0.661,0.712,0.986,0.673,0.723
AUUCACCUAGUACAUCGGGUG [Fam2.2 aminoacylation ribozyme variant],10.4,1.55,2.21,1.65,2.71,2.21

Sequence,self-aminoacylation (biotinyl-Phe-oxazolone),self-aminoacylation (biotinyl-Ile-oxazolone),self-aminoacylation (biotinyl-Met-oxazolone),self-aminoacylation (biotinyl-Val-oxazolone),self-aminoacylation (biotinyl-Leu-oxazolone),self-aminoacylation (biotinyl-Trp-oxazolone)
AUUCACCUAGUGCAUCGGGUG [Fam2.2 aminoacylation ribozyme variant],5.22,1.35,1.62,1.63,2.12,1.17
AUUCACCUAGUUCACCGGGUG [Fam2.2 aminoacylation ribozyme variant],15.6,2.37,3.25,2.41,3.58,3.92
AUUCACCUAGUUCAUCGCGUG [Fam2.2 aminoacylation ribozyme variant],35.7,3.27,4.88,2.99,6.91,5.66
AUUCACCUAGUUCAUCGGGUC [Fam2.2 aminoacylation ribozyme variant],0.49,0.996,0.906,1.17,0.903,0.582
AUUCACCUAGUUCAUUGGGUG [Fam2.2 aminoacylation ribozyme variant],18.9,1.85,2.54,1.62,3.47,2.83
AUUCACCUAGUUCUUCGGGUG [Fam2.2 aminoacylation ribozyme variant],18.1,2.2,2.71,2.43,3.31,2.9
AUUCACCUAGUUGAUCGGGUG [Fam2.2 aminoacylation ribozyme variant],23.9,2.5,3.66,2.79,4.3,4.26
AUUCACCUAUGUCUUCGGGUG [Fam2.2 aminoacylation ribozyme variant],14.7,2.11,2.42,2.02,2.67,2.35
AUUCACCUCGAUCAUCGGGUG [Fam2.2 aminoacylation ribozyme variant],39.4,3.11,4.77,3.18,5.94,3.99
AUUCACCUCGGACAUCGGGUG [Fam2.2 aminoacylation ribozyme variant],40.1,3.09,4.76,4.74,6.78,5.08
AUUCACCUCGGUAAUCGGGUG [Fam2.2 aminoacylation ribozyme variant],31.8,4.01,4.55,3.32,6.13,4.41
AUUCACCUCGGUCAGCGGGUG [Fam2.2 aminoacylation ribozyme variant],28.3,3.13,4.51,3.37,5.84,4.8
AUUCACCUCGGUCAUCGCGUG [Fam2.2 aminoacylation ribozyme variant],109,6.77,11.4,7.67,16,12.9
AUUCACCUCGGUCAUCGGGGG [Fam2.2 aminoacylation ribozyme variant],12.8,2.66,3.13,2.67,2.98,2.72
AUUCACCUCGGUUAUCGGGUG [Fam2.2 aminoacylation ribozyme variant],41.1,4.48,5.58,4.58,7.66,7.82
AUUCACCUCUGUCAUCGGGUG [Fam2.2 aminoacylation ribozyme variant],54.5,3.8,7.32,4.06,10.1,7.31
AUUCACCUGGCUCAUCGGGUG [Fam2.2 aminoacylation ribozyme variant],18.3,2.18,1.79,3.81,3.2,2.44
AUUCACCUGGGGCAUCGGGUG [Fam2.2 aminoacylation ribozyme variant],36.1,4.42,5.8,6.59,5.93,7.38
AUUCACCUGGGUCAUCGGGUA [Fam2.2 aminoacylation ribozyme variant],47.8,8.3,18.6,10.6,22.3,14.8
AUUCACCUGGGUGAUCGGGUG [Fam2.2 aminoacylation ribozyme variant],24.1,3.9,4.39,4.45,4.89,6.7
AUUCACCUGGGUUAUCGGGUG [Fam2.2 aminoacylation ribozyme variant],36.6,3.35,6.06,4,6.24,5.56
